As a reminder, the EC50 is the concentration that produces a half-maximal response. A lower EC50 goes with higher potency in that assay. For orientation: Kd means the constant that tells how readily two partners part at equilibrium. Broadly, the koff is the rate constant with which the complex falls apart. A high value points to fast dissociation. What is called kon is the rate constant with which the complex forms.

The target of assay [1] is T1, human CD16B (NA1) on NK92mi cells (human, UniProt O75015 17-200).
T1 construct: also called NK92mi/CD16B (NA1); NK92mi/CD16B NA1
T1 chain: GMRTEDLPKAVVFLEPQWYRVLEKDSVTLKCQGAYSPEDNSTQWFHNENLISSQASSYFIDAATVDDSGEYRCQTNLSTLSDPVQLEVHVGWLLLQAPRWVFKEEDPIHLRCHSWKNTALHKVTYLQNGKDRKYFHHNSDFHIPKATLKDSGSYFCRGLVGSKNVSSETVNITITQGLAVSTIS
Put plainly: flow cytometry on NK92mi/CD16B (NA1) cells; fit not meaningful.

A further assay addresses T2, human CD16B-His6 (SH) (human, UniProt O75015 17-200).
T2 construct: Bought ECD fragment; also called CD16B SH allotype; human CD16B (SH); not shown: six-histidine tag (His6)
Put plainly: antigen ELISA, coated Human CD16B (SH), HRP anti-human IgG. In general terms: ELISA stands for enzyme-linked immunosorbent assay.

Assay [2] deals with T3, human CD16B (NA2) on NK92mi cells (human, UniProt O75015 17-200).
T3 construct: also called NK92mi/CD16B (NA2); NK92mi/CD16B NA2
T3 chain: T1 chain with R20S, N49S, D66N, V90I
As to the kind of experiment: flow cytometry on NK92mi/CD16B (NA2) cells. Background: In flow cytometry, cells or beads pass a laser one at a time.

Assay [3] deals with T4, cyno CD16-His6 (cyno, UniProt Q8SPW2 17-208).
T4 construct: Bought ECD fragment; not shown: six-histidine tag (His6)
T4 sequence (Q8SPW2 17-208): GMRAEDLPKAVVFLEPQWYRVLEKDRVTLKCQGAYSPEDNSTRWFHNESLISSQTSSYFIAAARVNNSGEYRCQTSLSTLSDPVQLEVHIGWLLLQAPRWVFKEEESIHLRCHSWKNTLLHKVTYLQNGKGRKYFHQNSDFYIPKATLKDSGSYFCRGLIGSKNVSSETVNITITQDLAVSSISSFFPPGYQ
As to the kind of experiment: antigen ELISA, coated Cyno CD16, HRP anti-human IgG; one concentration (paragraph 202 prints 1 mg/ml).

Assay [4] deals with T5, human CD16A (V158) on NK92mi cells (human, UniProt P08637 17-254).
T5 construct: NK92mi cells co-transduced with CD16A (V158) and FcRgamma cDNAs; also called NK92mi/CD16A V158; NK92mi/CD16A
Put plainly: flow cytometry on NK92mi/CD16A cells (V158 by paragraph 201).

Assay [5] concerns the target T6, human CD16A-His6 (V158) (human, UniProt P08637 17-208).
T6 construct: Bought (Sino Biologics) ECD fragment; also called CD16A 158V; human CD16A (V158); not shown: six-histidine tag (His6)
Put plainly: antigen ELISA, coated Human CD16A (V158), HRP anti-human IgG; one concentration (paragraph 202 prints 1 mg/ml).

In assay [6] the target is T3, human CD16B (NA2) on NK92mi cells. Put plainly: flow cytometry on live NK92mi/CD16B NA2 cells, 300 nM VHH-Fc.
Assay [7] has as its target T6, human CD16A-His6 (V158). As to the kind of experiment: SPR; VHH-Fc captured on anti-human Fc surface; row head prints 'KD (nM)', koff/kon shows M. A general note: SPR reads the build-up and loss of mass on a sensor chip optically.
In assay [8] the target is T7, human CD16A-His6 (F158) (human, UniProt P08637 17-208).
T7 construct: Bought ECD fragment; also called human CD16A (F158); not shown: six-histidine tag (His6)
The description is as above.

The target in assay [9] is T1, human CD16B (NA1) on NK92mi cells. Put plainly: flow cytometry, NK92mi/CD16B (NA1) against NK92mi/CD16A cells (weaker on CD16B).
For assay [10], the target named is T4, cyno CD16-His6. Put plainly: SPR; VHH-Fc captured on anti-human Fc surface.
The target of assay [11] is T8, human CD16A (F158) on NK92mi cells (human, UniProt P08637 17-254).
T8 construct: NK92mi cells co-transduced with CD16A (F158) and FcRgamma cDNAs; also called NK92mi/CD16A F158
As to the kind of experiment: flow cytometry, biotinylated VHH-Fc on NK92mi/CD16A 158F cells, without human IgG1 (CB6).

The target of assay [12] is T1, human CD16B (NA1) on NK92mi cells. Put plainly: flow cytometry on live NK92mi/CD16B NA1 cells, 300 nM VHH-Fc.
The target in assay [13] is T6, human CD16A-His6 (V158). As to the kind of experiment: SPR; VHH-Fc captured on anti-human Fc surface.
Assay [14] concerns the target T7, human CD16A-His6 (F158). Put plainly: SPR; VHH-Fc captured on anti-human Fc surface.
Assay [15] has as its target T6, human CD16A-His6 (V158). As to the kind of experiment: SPR; VHH-Fc captured on anti-human Fc surface. This is another data set of the same source.
The target of assay [16] is T7, human CD16A-His6 (F158). As to the kind of experiment: SPR; VHH-Fc captured on anti-human Fc surface. This is another data set of the same source.
Assay [17] deals with T9, human CD16B-His6 (NA1) (human, UniProt O75015 17-200).
T9 construct: Bought ECD fragment; also called CD16B NA1; human CD16B (NA1); not shown: six-histidine tag (His6)
T9 chain: T1 chain
As to the kind of experiment: SPR; VHH-Fc captured on anti-human Fc surface; row head prints 'KD (nM)', taken as M like the rest of the table.

In assay [18] the target is T10, human CD16B-His6 (NA2) (human, UniProt O75015 17-200).
T10 construct: Bought ECD fragment; also called CD16B NA2; human CD16B (NA2); not shown: six-histidine tag (His6)
T10 chain: T1 chain with R20S, N49S, D66N, V90I
The assay is described as above.

Assay [19] concerns the target T8, human CD16A (F158) on NK92mi cells. Put plainly: flow cytometry on NK92mi/CD16A 158F cells.
Assay [20] addresses T4, cyno CD16-His6. Put plainly: SPR; VHH-Fc captured on anti-human Fc surface; column head prints 'KD (nM)', koff/kon shows M.
Assay [21] deals with T9, human CD16B-His6 (NA1). As to the kind of experiment: SPR; VHH-Fc captured on anti-human Fc surface; row head prints 'KD (nM)', taken as M like the rest of the table.
For assay [22], the target named is T10, human CD16B-His6 (NA2). The description is as above.
For assay [23], the target named is T8, human CD16A (F158) on NK92mi cells. As to the kind of experiment: flow cytometry on live NK92mi/CD16A 158F cells.
Assay [24] addresses T1, human CD16B (NA1) on NK92mi cells. Put plainly: flow cytometry on NK92mi/CD16B (NA1) cells.
Assay [25] deals with T6, human CD16A-His6 (V158). Put plainly: SPR; VHH-Fc captured on anti-human Fc surface; row head prints 'KD (nM)', koff/kon shows M. The source holds these as a separate data set.
Assay [26] has as its target T7, human CD16A-His6 (F158). The description is as above. This is another data set of the same source.
Assay [27] addresses T8, human CD16A (F158) on NK92mi cells. As to the kind of experiment: flow cytometry, biotinylated VHH-Fc on NK92mi/CD16A 158F cells, with 10 mg/ml human IgG1 CB6 as competitor.

Changes are numbered by the printed parent chain. Read-outs that look alike come from different tables or passages of the source.

B1: LS21 (scFv)
scFv: EVQLVQSGAEVKKPGESLKVSCKASGYTFTSYYMHWVRQAPGQGLEWMGIINPSGGSTSYAQKFQGRVTMTRDTSTSTVYMELSSLRSEDTAVYYCARGSAYYYDFADYWGQGTLVTVSSGGGGSGGGGSGGGGSQPVLTQPSSVSVAPGQTATISCGGHNIGSKNVHWYQQRPGQSPVLVIYQDNKRPSGIPERFSGSNSGNTATLTISGTQAMDEADYYCQVWDNYSVLFGGGTKLTVL
Consider B1, for which the EC50 is around 155000 µg/mL in assay [1], 0.136 µg/mL in assay [2] and 1.04 µg/mL in [4]. Further, the results for the binding result with human CD16B-His6 (SH), with cyno CD16-His6 [3] and with human CD16A-His6 (V158) [5] were “no binding”, “binds” and “binds”, respectively.

B2: BG523P (VHH-Fc) (VHH)
chain: QVQLVESGGGVVQPGGSLTLSCEASGRTFGSYAVGWFRQALGRGREFVAAIRRSDGTTDYVDSVKGRFTISRDNAKNTVYLQMNSLKPEDTAVYYCAASDSDYEPLGDYWGQGTQVTVSSEPKSSDKTHTCPPCPAPPAAGPSVFLFPPKPKDTLMISRTPEVTCVVVDVSHEDPEVKFNWYVDGVEVHNAKTKPREEQYNSTYRVVSVLTVLHQDWLNGKEYKCKVSNKALAAPIEKTISKAKGQPREPQVYTLPPSREEMTKNQVSLTCLVKGFYPSDIAVEWESNGQPENNYKTTPPVLDSDGSFFLYSKLTVDKSRWQQGNVFSCSVMHEALHNHYTQKSLSLSPGK
notes: Alpaca anti-CD16A VHH fused to a C-terminal human IgG1 mf Fc tag (VHH-Fc); also called parental clone
In the case of B2, the “Binding signal at 300 nM (MFI)” value in assay [6] turned out to be 65 MFI; in assay [12] it was 577 MFI. The dissociation constant Kd is 0.408 nM with human CD16A-His6 (V158) [7]; 0.402 nM with human CD16A-His6 (F158) [8]; 1700 nM with human CD16B-His6 (NA1) [17]; 4260 nM in the assay with human CD16B-His6 (NA2) [18]; 0.289 nM with cyno CD16-His6 [20]; 1760 nM with human CD16B-His6 (NA1) [21]. Besides, the Kd was 4950 nM with human CD16B-His6 (NA2) [22], 0.222 nM with human CD16A-His6 (V158) [25] and 0.353 nM with human CD16A-His6 (F158) [26]. In assay [9], the “fold change of EC50 against CD16A binding” value is around 40 fold. Also, the off-rate (koff) in the assay with cyno CD16-His6 [10] amounted to 8.09e-05 s⁻¹; with human CD16A-His6 (V158) [13], 6.22e-05 s⁻¹; with human CD16A-His6 (F158) [14], 7.88e-05 s⁻¹; in the assay with human CD16A-His6 (V158) [15], 0.000113 s⁻¹; in the assay with human CD16A-His6 (F158) [16] it was 0.000128 s⁻¹. Moreover, the kon was 280000 M⁻¹ s⁻¹ with cyno CD16-His6 [10]; 280000 M⁻¹ s⁻¹ in the assay with human CD16A-His6 (V158) [13]; 224000 M⁻¹ s⁻¹ with human CD16A-His6 (F158) [14]; 276000 M⁻¹ s⁻¹ in the assay with human CD16A-His6 (V158) [15]; 319000 M⁻¹ s⁻¹ with human CD16A-His6 (F158) [16]. Besides, the half-maximal effective concentration (EC50) in assay [2] was found to be 28.9 µg/mL; in [11] it was 1.19 nM; in assay [4] it was 0.242 µg/mL; in assay [19], 10.6 nM; in assay [23], 15.1 nM; in assay [24], 9.52 µg/mL. The molecule further came in with an EC50 in [27] of 6.57 nM. The “EMAX (MFI)” value in assay [11] was found to be 22100 MFI; in assay [19], 9920 MFI; in assay [27], 21300 MFI.

(Values after patent US20250075002A1 (BEIGENE SWITZERLAND, published 2025).)
